Assay results taken from publication PMC5999318 (Molecular cell, 2018).

T1: His-tagged CodA, purified recombinant (E. coli, UniProt P25524 1-427)
T1 sequence (looked up): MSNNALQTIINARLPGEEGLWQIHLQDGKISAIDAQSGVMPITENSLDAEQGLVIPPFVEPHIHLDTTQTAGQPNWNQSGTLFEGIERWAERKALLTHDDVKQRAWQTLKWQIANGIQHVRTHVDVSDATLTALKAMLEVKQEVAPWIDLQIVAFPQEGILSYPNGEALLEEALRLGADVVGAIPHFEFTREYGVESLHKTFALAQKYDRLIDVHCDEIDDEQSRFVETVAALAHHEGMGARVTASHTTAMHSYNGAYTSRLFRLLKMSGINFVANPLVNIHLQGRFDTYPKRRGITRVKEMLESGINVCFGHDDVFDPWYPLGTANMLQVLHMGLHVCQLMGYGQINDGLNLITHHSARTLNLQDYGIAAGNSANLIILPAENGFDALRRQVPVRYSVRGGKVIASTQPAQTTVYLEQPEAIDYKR


What was measured:
[1] = molecular target: T1, His-tagged CodA, purified recombinant; assay: co-IP
[2] = molecular target: the molecule itself; assay: non-reducing SDS-PAGE and anti-FLAG western blot of lysates

binding result [1] | Binder | stoichiometry N [2]
binds | His-tagged GAPDH, purified recombinant (enzyme, E. coli, UniProt P0A9B2 1-331, looked up) MTIKVGINGFGRIGRIVFRAAQKRSDIEIVAINDLLDADYMAYMLKYDSTHGRFDGTVEVKDGHLIVNGKKIRVTAERDPANLKWDEVGVDVVAEATGLFLTDETARKHITAGAKKVVMTGPSKDNTPMFVKGANFDKYAGQDIVSNASCTTNCLAPLAKVINDNFGIIEGLMTTVHATTATQKTVDGPSHKDWRGGRGASQNIIPSSTGAAKAVGKVLPELNGKLTGMAFRVPTPNVSVVDLTVRLEKAATYEQIKAAVKAAAEGEMKGVLGYTEDDVVSTDFNGEVCTSVFDAKAGIALNDNFVKLVSWYDNETGYSNKVLDLIAHISK | –
– | FLAG-tagged Hcp (hybrid-cluster protein), overexpressed in WT E. coli (enzyme, UniProt P75825 1-550, looked up) MFCVQCEQTIRTPAGNGCSYAQGMCGKTAETSDLQDLLIAALQGLSAWAVKAREYGIINHDVDSFAPRAFFSTLTNVNFDSPRIVGYAREAIALREALKAQCLAVDANARVDNPMADLQLVSDDLGELQRQAAEFTPNKDKAAIGENILGLRLLCLYGLKGAAAYMEHAHVLGQYDNDIYAQYHKIMAWLGTWPADMNALLECSMEIGQMNFKVMSILDAGETGKYGHPTPTQVNVKATAGKCILISGHDLKDLYNLLEQTEGTGVNVYTHGEMLPAHGYPELRKFKHLVGNYGSGWQNQQVEFARFPGPIVMTSNCIIDPTVGAYDDRIWTRSIVGWPGVRHLDGDDFSAVITQAQQMAGFPYSEIPHLITVGFGRQTLLGAADTLIDLVSREKLRHIFLLGGCDGARGERHYFTDFATSVPDDCLILTLACGKYRFNKLEFGDIEGLPRLVDAGQCNDAYSAIILAVTLAEKLGCGVNDLPLSLVLSWFEQKAIVILLTLLSLGVKNIVTGPTAPGFLTPDLLAVLNEKFGLRSITTVEEDMKQLLSA | 2
